# Test results as given in the Human Domainome abundance scans (Beltran et al. 2025).
# ± gives the uncertainty stated by the source.
# B1: Peroxisome proliferator-activated receptor delta, residues 71 to 145; numbered along this chain, Q03181 (parent)
# chain: NMECRVCGDKASGFHYGVHACEGCKGFFRRTIRMKLEYEKCERSCKIQKKNRNKCQYCRFQKCLALGMSHNAIRF
# Variants of: B1
# Assay: abundance fitness (aPCA) (normalised: wild type 0, dead -1); higher = more abundant; growth selection in yeast, the domain comes from the species named
# Conditions: Homo sapiens
row,Variant,abundance fitness
1,E3V,-0.178 ± 0.045
2,E3P,-0.353 ± 0.058
3,E3W,-0.176 ± 0.054
4,E3Y,-0.182 ± 0.086
5,E3S,-0.033 ± 0.041
6,E3T,-0.102 ± 0.047
7,E3Q,-0.059 ± 0.048
8,E3R,-0.327 ± 0.041
9,G13E,-0.274 ± 0.052
10,G13C,-0.596 ± 0.12
11,G13A,-0.239 ± 0.044
12,G13D,-0.103 ± 0.056
13,R5F,-0.326 ± 0.091
14,R5L,0.003 ± 0.037
15,R5T,-0.018 ± 0.043
16,R5W,-0.118 ± 0.047
17,R5C,-0.13 ± 0.063
18,R5Q,0.113 ± 0.047
19,R5H,-0.257 ± 0.1
20,R5G,-0.045 ± 0.031
21,R5N,0.089 ± 0.064
22,R5I,-0.176 ± 0.067
23,R5S,0.034 ± 0.038
24,R5A,0.175 ± 0.034

row,Variant,abundance fitness
1,R5D,0.032 ± 0.05
2,R5E,0.105 ± 0.045
3,R5K,0.139 ± 0.05
4,R5Y,-0.085 ± 0.088
5,R5P,-0.376 ± 0.055
6,R5V,0.091 ± 0.035
7,R5M,0.067 ± 0.048
8,A11G,-0.232 ± 0.036
9,A11L,-0.338 ± 0.048
10,A11D,-0.237 ± 0.077
11,A11I,-0.154 ± 0.083
12,A11P,-0.197 ± 0.065
13,A11Y,-0.31 ± 0.083
14,A11V,-0.306 ± 0.05
15,A11C,-0.367 ± 0.075
16,A11T,-0.147 ± 0.052
17,A11F,-0.228 ± 0.085
18,A11R,-0.485 ± 0.049
19,A11M,-0.337 ± 0.069
20,A11Q,-0.546 ± 0.096
21,A11H,-0.218 ± 0.1
22,A11W,-0.706 ± 0.092
23,A11S,-0.091 ± 0.045
24,A11K,-0.482 ± 0.091

row,Variant,abundance fitness
1,C7K,-0.63 ± 0.13
2,C7E,-0.656 ± 0.099
3,C7M,-0.984 ± 0.18
4,C7A,-0.66 ± 0.11
5,C7L,-0.782 ± 0.089
6,C7R,-0.793 ± 0.077
7,C7D,-0.952 ± 0.34
8,C7T,-0.862 ± 0.13
9,C7P,-0.759 ± 0.14
10,C7N,-0.412 ± 0.11
11,C7G,-0.504 ± 0.06
12,C7H,-0.21 ± 0.14
13,C7F,-0.867 ± 0.25
14,C7Q,-0.584 ± 0.11
15,C7Y,-0.673 ± 0.14
16,C7S,-0.575 ± 0.067
17,C7I,-0.877 ± 0.22
18,C7W,-0.895 ± 0.15
19,V6Q,-0.968 ± 0.2
20,V6H,-0.914 ± 0.32
21,V6K,-0.745 ± 0.14
22,V6C,-0.873 ± 0.19
23,V6I,0.059 ± 0.069
24,V6P,-0.923 ± 0.12

row,Variant,abundance fitness
1,V6T,-1.18 ± 0.19
2,V6E,-0.561 ± 0.11
3,V6D,-0.823 ± 0.19
4,V6M,-0.674 ± 0.12
5,V6G,-0.841 ± 0.079
6,V6L,-0.614 ± 0.067
7,V6R,-0.839 ± 0.072
8,V6W,-0.934 ± 0.14
9,V6Y,-0.748 ± 0.17
10,V6F,-0.547 ± 0.14
11,V6A,-0.619 ± 0.07
12,V6S,-1.07 ± 0.14
13,V6N,-0.624 ± 0.17
14,S12L,-0.395 ± 0.059
15,S12N,-0.098 ± 0.067
16,S12V,-0.222 ± 0.045
17,S12W,-0.579 ± 0.079
18,S12I,-0.121 ± 0.11
19,S12G,-0.274 ± 0.046
20,S12R,-0.351 ± 0.046
21,S12Y,-0.138 ± 0.072
22,S12T,-0.06 ± 0.048
23,S12F,-0.115 ± 0.086
24,S12Q,-0.115 ± 0.057

row,Variant,abundance fitness
1,S12K,-0.248 ± 0.06
2,S12P,-0.39 ± 0.07
3,S12H,-0.238 ± 0.092
4,S12A,-0.119 ± 0.042
5,S12C,-0.103 ± 0.069
6,S12E,-0.123 ± 0.052
7,K10H,-0.027 ± 0.094
8,K10I,-0.052 ± 0.071
9,K10M,-0.107 ± 0.059
10,K10F,-0.283 ± 0.11
11,K10V,0 ± 0.038
12,K10A,-0.002 ± 0.041
13,K10S,-0.106 ± 0.038
14,K10C,-0.336 ± 0.074
15,K10E,0.007 ± 0.039
16,K10L,-0.018 ± 0.039
17,K10Q,0.08 ± 0.045
18,K10G,-0.191 ± 0.035
19,K10W,-0.206 ± 0.053
20,K10N,-0.075 ± 0.08
21,K10P,-0.268 ± 0.057
22,K10D,-0.01 ± 0.059
23,C4P,-1.07 ± 0.18
24,C4K,-0.775 ± 0.13

row,Variant,abundance fitness
1,C4T,-0.962 ± 0.15
2,C4R,-0.558 ± 0.07
3,C4F,-0.675 ± 0.2
4,C4Q,-0.738 ± 0.12
5,C4W,-0.747 ± 0.13
6,C4S,-0.669 ± 0.082
7,C4H,-0.576 ± 0.17
8,C4M,-0.461 ± 0.11
9,C4N,-0.738 ± 0.2
10,C4G,-0.911 ± 0.12
11,C4Y,-0.693 ± 0.14
12,C4E,-0.571 ± 0.12
13,C4I,-1.14 ± 0.4
14,D9N,-0.152 ± 0.064
15,D9K,-0.548 ± 0.12
16,D9S,-0.178 ± 0.045
17,D9M,-0.436 ± 0.086
18,D9H,-0.668 ± 0.2
19,D9E,-0.154 ± 0.044
20,D9W,-0.618 ± 0.097
21,D9C,-0.305 ± 0.075
22,D9L,-0.63 ± 0.072
23,D9V,-0.331 ± 0.048
24,D9T,-0.327 ± 0.067

row,Variant,abundance fitness
1,D9Q,-0.374 ± 0.077
2,D9G,-0.198 ± 0.037
3,D9R,-0.348 ± 0.045
4,D9A,-0.065 ± 0.043
5,D9I,-0.345 ± 0.12
6,D9F,-0.283 ± 0.082
7,G8V,-0.899 ± 0.093
8,G8P,-0.891 ± 0.11
9,G8Q,-0.253 ± 0.064
10,G8A,-0.382 ± 0.052
11,G8M,-0.782 ± 0.12
12,G8E,-0.32 ± 0.061
13,G8K,-0.563 ± 0.1
14,G8I,-0.687 ± 0.34
15,G8C,-0.582 ± 0.095
16,G8H,-0.064 ± 0.087
17,G8W,-0.812 ± 0.13
18,G8Y,-0.438 ± 0.15
19,G8F,-0.779 ± 0.23
20,G8L,-0.598 ± 0.07
21,G8D,-0.434 ± 0.1
22,G8S,-0.362 ± 0.045
23,G8T,-0.447 ± 0.068
